This is an account of results in publication PMC3898841, “Identification of a Major Determinant for Serine-Threonine Kinase Phosphoacceptor Specificity” (Molecular Cell, 2014).

In assay [1] the target is T1, WT PAK4 catalytic domain (human, UniProt O96013 286-591, phosphoserine at 474 (activation loop, as seen in the structures)).
T1 construct: residues built in the models: 300-589 (4JDH, 4JDI) and 291-591 (2Q0N); The construct of PDB 2Q0N may have other limits than that of 4JDH/4JDI

In assay [2] the target is T2, PAK4 F461V catalytic domain (human, UniProt O96013 286-591, F461V, phosphoserine at 474 (activation loop, as seen in the structures)).
T2 construct: residues built in the models: 300-589; also called F461V mutant PAK4
T2 sequence (O96013 286-591 F461V): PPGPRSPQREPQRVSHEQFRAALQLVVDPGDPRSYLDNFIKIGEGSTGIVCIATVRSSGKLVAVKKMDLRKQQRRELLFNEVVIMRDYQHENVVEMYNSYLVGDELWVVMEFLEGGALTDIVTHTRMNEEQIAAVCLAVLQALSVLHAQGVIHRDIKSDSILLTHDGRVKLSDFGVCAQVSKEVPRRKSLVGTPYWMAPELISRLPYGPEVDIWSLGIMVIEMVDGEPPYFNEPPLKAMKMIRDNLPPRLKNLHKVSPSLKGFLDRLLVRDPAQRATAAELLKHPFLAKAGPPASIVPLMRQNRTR

A further assay has as its target WT MST4 (human) (UniProt Q9P289).
The target of a further assay is MST4 V165F (human) (UniProt Q9P289).
Sequence of MST4 V165F (human) (Q9P289 whole entry V165F, the tested form may be a part): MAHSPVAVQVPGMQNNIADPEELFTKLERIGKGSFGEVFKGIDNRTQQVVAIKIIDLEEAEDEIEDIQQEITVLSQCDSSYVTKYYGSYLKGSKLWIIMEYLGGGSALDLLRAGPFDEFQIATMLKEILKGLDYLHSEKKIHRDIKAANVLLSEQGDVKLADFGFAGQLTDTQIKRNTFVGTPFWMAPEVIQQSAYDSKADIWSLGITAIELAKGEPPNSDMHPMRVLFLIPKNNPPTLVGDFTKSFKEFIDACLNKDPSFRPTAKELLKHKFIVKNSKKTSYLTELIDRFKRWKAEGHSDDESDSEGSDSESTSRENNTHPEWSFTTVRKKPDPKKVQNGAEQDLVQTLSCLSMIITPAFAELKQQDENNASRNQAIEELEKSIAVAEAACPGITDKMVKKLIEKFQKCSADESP
Assay [3] deals with T2, PAK4 F461V catalytic domain. Kind of assay: crystal structure; PAK4 F461V cocrystals with peptide, hanging drop vapor diffusion, 0.1 M Tris-HCl (pH 7.5), 1.5-2.0 M NaOAc at room temperature. As to conditions: both partners purified.
In assay [4] the target is T1, WT PAK4 catalytic domain. Kind of assay: crystal structure; WT PAK4 crystals grown by hanging drop vapor diffusion against 0.1 M Tris-HCl (pH 7.5), 1.5-2.0 M NaOAc at room temperature and soaked with peptides. As to conditions: both partners purified.
Assay [5] addresses T1, WT PAK4 catalytic domain. Kind of assay: crystal structure; cocrystals of PAK4 with PAKtide-S(L), 1.7 M ammonium sulfate, 15% PEG400, 0.1 M Tris-HCl (pH 8.0). As to conditions: both partners purified.

T1 sequence (O96013 286-591): as the sequence (O96013 286-591 F461V) above, with V176F counted along it
Sequence of WT MST4 (human) (Q9P289 whole entry): as the sequence (Q9P289 whole entry V165F, the tested form may be a part) above, with F165V counted along it

B1: PAK4 substrate peptide … (X = Ser) (peptide)
peptide: GGRRRRRSWYFGGGK
For the molecule B1, the Km for phosphorylation of the peptide (radiolabel filter binding kinase assay) with WT PAK4 catalytic domain [1] came to 280 µM; in assay [2] it was 129 µM.

B2: MST4 substrate peptide … (X = Thr) (peptide)
peptide: NKGYNTLRRKK
B2: the results for the Km for phosphorylation of the peptide (radiolabel filter binding kinase assay) in the assay with WT MST4 (human) and in the assay with MST4 V165F (human) were 14 µM and 390 µM, respectively.

B3: PAKtide-S (peptide)
peptide: RRRRSWY
notes: consensus peptide substrate of PAK4, phosphoacceptor Ser (P0); also called PAK4 consensus peptide substrate with Ser phosphoacceptor (short form used for crystals); source: synthetic peptide
B3: the binding result (in assay [3]; in the assay with WT PAK4 catalytic domain [4]) was “binds” throughout.

B4: PAKtide-S(L) (peptide)
peptide: RRRRRSWYFDG
notes: longer consensus peptide substrate of PAK4, phosphoacceptor Ser (P0); also called longer version of the consensus peptide; source: synthetic peptide
On to B4, for which the binding result with WT PAK4 catalytic domain [5] was “binds”.

B5: MST4 substrate peptide … (X = Ser) (peptide)
peptide: NKGYNSLRRKK
On to B5, for which the figures for the Km for phosphorylation of the peptide (radiolabel filter binding kinase assay) with WT MST4 (human) and in the assay with MST4 V165F (human) were 21.7 µM and 360 µM, respectively.
